Literature values as cited in paper PMC11591972.

Biological target: Vm24 (Vaejovis mexicanus smithi) (UniProt P0DJ31)
Chain of UniProt P0DJ31 (P0DJ31 whole entry): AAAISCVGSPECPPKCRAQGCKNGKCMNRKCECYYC

For Kv1.3 (from UniProt P22001), which Kd is on record?
Its Kd is 3 pM.
